By EC50 (read off the curve) is commonly meant the concentration needed to bring the measured effect to its halfway point. Read a low EC50 (read off the curve) as greater potency.

The text below walks through data of patent US20240218065A1 (SHENGHE CHINA BIOPHARMACEUTICAL, published 2024).

In experiment [1] the target is T1, Human-NKP30-His (Kactus, cat: NKP-HM430) (human, UniProt O14931 19-138, limits assumed).
T1 construct: also called NKP30 protein; NKP30-his protein; not shown: His tag
T1 sequence (looked up): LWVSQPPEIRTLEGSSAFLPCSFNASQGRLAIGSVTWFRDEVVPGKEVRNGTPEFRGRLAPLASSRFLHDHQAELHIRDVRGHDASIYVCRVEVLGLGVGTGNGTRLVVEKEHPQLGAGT
As to the kind of experiment: ELISA: Human-NKP30-His coated at 0.2 µg/mL, antibody titrated 3-fold from 10 µg/mL (7 points), HRP goat anti-human IgG-Fc, OD450-OD570. As for the experimental part: Human-NKP30-His (Kactus, cat: NKP-HM430) was diluted to 0.2 μg/mL with PBS buffer at pH 7.4, added into the 96-well ELISA plate at 100 μL per well, coated overnight at 4° C., and blocked with 1% BSA blocking solution for 1 hour. The plate was washed 3 times with PBST, and the constructed expressing antibody was diluted to 10 μg/mL with 0.5% BSA sample diluent as the starting concentration, and then diluted by 3-fold gradient (7 gradients in total). A negative control (blank well and IgG1 isotype control) and a positive control were set, and the positive control was the NKP30 humanized antibody (sequence shown in SEQ ID No. 28), and incubated at 37° C. for 1 h at 100 μL per well. The plate was washed 3 times with PBST, and then HRP-labelled goat anti-human IgG-Fc was diluted with the sample diluent at 1:20000. 100 μL was added into each well, and incubated at room temperature for 1 hour. The plate was washed 4 times with PBST, and 100 μL of TMB substrate was added into each well, and incubated at room temperature without light for 10 minutes. 100 μL of 1 M HCl solution was added into each well to terminate the color development reaction. The absorbance value of each well in the 96-well plate was determined by selecting the wavelength of 450 nm and the reference wavelength of 570 nm on a multifunctional enzyme marker, and the absorbance value (OD)=OD₄₅₀ₙₘ−OD₅₇₀ₙₘ. The logarithm of the concentration of the constructed antibody was taken as the abscissa, and the measured absorbance value of each well was taken as the ordinate, and the Sigmoidaldose-response (Variable Slope) method (GraphPad Prism software, GraphPad Software, San Diego, California) was selected for nonlinear regression to obtain the binding curve of the target antibody to NKP30.
In general terms: ELISA stands for enzyme-linked immunosorbent assay.

In experiment [2] the target is T2, huCD24-humanFC (Acro, cat: CD4-H5254) (human, UniProt P25063 27-59).
T2 construct: also called CD24 protein; not shown: human Fc
T2 chain (looked up): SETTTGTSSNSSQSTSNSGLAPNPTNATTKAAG
As to the kind of experiment: Bridging ELISA: huCD24-humanFC coated at 0.3 µg/mL, antibody titrated 3-fold from 20 µg/mL, then NKP30-his at 0.3 µg/mL, HRP anti-His antibody, OD450-OD570. As to the method:
The huCD24-humanFC (Acro, cat: CD4-H5254) was diluted to 0.3 μg/mL with PBS buffer at pH 7.4, added into the 96-well ELISA plate at 100 μL per well, coated overnight at 4° C., and blocked with 1% BSA blocking solution for 1 hour. The plate was washed 3 times with PBST, and the purified antibody was diluted to 20 μg/mL with 0.5% BSA sample diluent as the starting concentration, and then diluted by 3-fold gradient (11 gradients in total). An irrelevant antibody was set as the negative control and incubated at 37° C. for 1 h at 50 μL per well. The plate was washed 3 times with PBST, and the NKP30-his protein was diluted to 0.3 μg/mL. 100 μL was added into each well, and incubated at room temperature for 1 h. The plate was washed 3 times with PBST, and then HRP-labelled his antibody was diluted with the sample diluent at 1:5000. 100 μL was added into each well, and incubated at room temperature for 1 h. The plate was washed 4 times with PBST, 100 μL of TMB substrate was added into each well, and incubated at room temperature without light for 10 min. 100 μL of 1 M HCl solution was added into each well to terminate the color development reaction. The absorbance value of each well in the 96-well plate was determined by selecting the wavelength of 450 nm and the reference wavelength of 570 nm on a multifunctional enzyme marker, and the absorbance value (OD)=OD₄₅₀ₙₘ−OD₅₇₀ₙₘ. The logarithm of antibody concentration was taken as the abscissa, and the measured absorbance value of each well was taken as the ordinate, and the Sigmoidaldose-response (Variable Slope) method (GraphPad Prism software, GraphPad Software, San Diego, California) was selected for nonlinear regression to obtain the binding curve of the target antibody to CD24 and NKP30 proteins at both ends.

B1: DN15-A (bispecific antibody, human IgG1, kappa)
light: EVQLVESGGGLVQPGGSLRLSCAASGITFSRSVMGWFRQAPGKLRELVAGITSDDNTDYADSVKGRFTISRDNSKNTLYLQMNSLRAEDTAVYYCNILPDSRLGWGQGTLVTVSSGGGGSGGGGSGGGGSDIQMTQSPSTLSASVGDRVTITCSASSSVSSMHWYQQKPGKAPKLLIYSTSNLASGVPSRFSGSGSGTEYTLTISSLQPDDFATYYCHHWTSYMYTFGGGTKVEIKRTVAAPSVFIFPPSDEQLKSGTASVVCLLNNFYPREAKVQWKVDNALQSGNSQESVTEQDSKDSTYSLSSTLTLSKADYEKHKVYACEVTHQGLSSPVTKSFNRGEC
heavy 1: not shown
heavy 2: QVQLVQSGSELKKPGASVKVSCKASGYIFTDYAIHWVRQAPGQGLEWMGFINTATGEPTYADDFKGRFVFSLDTSVSTAYLQISSLKAEDTAVYFCTSGVHWGQGTLVTVSSASTKGPSVFPLAPSSKSTSGGTAALGCLVKDYFPEPVTVSWNSGALTSGVHTFPAVLQSSGLYSLSSVVTVPSSSLGTQTYICNVNHKPSNTKVDKKVEPKSCDKTHTCPPCPGGGGSGGGGSPALLLLLLLRPPATRGITCPPPMSVEHADIWVKSYSLYSRERYICNSGFKRKAGTSSLTECVLNKATNVAHWTTPSLKCIRDPALVHQRPAPPSTVTTAGVTPQPESLSPSGKEGGGGSGGGGSAPELLGGPSVFLFPPKPKDTLMISRTPEVTCVVVDVSHEDPEVKFNWYVDGVEVHNAKTKPREEQYNSTYRVVSVLTVLHQDWLNGKEYKCKVSNKALPAPIEKTISKAKGQPREPQVYTLPPSRDELTKNQVSLTCLVKGFYPSDIAVEWESNGQPENNYKTTPPVLDSDGSFFLASKLTVDKSRWQQGNVFSCSVMHEALHNHYTQKSLSLSPGK
notes: Trifunctional antibody against CD24 and NKP30 with IL-15 and IL-15Rα sushi between CH1 and CH2; also called constructed antibody DN15-A; multifunctional antibody
As to B1, the binding result in experiment [1] is given as “binds”. For the same molecule, the concentration giving a half-maximal response (EC50 (read off the curve)) in experiment [2] was around 0.08 µg/mL.

B2: DN15-B (bispecific antibody, human IgG1, kappa)
light: DIQMTQSPSTLSASVGDRVTITCSASSSVSSMHWYQQKPGKAPKLLIYSTSNLASGVPSRFSGSGSGTEYTLTISSLQPDDFATYYCHHWTSYMYTFGGGTKVEIKRTVAAPSVFIFPPSDEQLKSGTASVVCLLNNFYPREAKVQWKVDNALQSGNSQESVTEQDSKDSTYSLSSTLTLSKADYEKHKVYACEVTHQGLSSPVTKSFNRGEC
heavy 1: not shown
heavy 2: EVQLVESGGGLVQPGGSLRLSCAASGITFSRSVMGWFRQAPGKLRELVAGITSDDNTDYADSVKGRFTISRDNSKNTLYLQMNSLRAEDTAVYYCNILPDSRLGWGQGTLVTVSSGGGGSGGGGSGGGGSQVQLVQSGSELKKPGASVKVSCKASGYIFTDYAIHWVRQAPGQGLEWMGFINTATGEPTYADDFKGRFVFSLDTSVSTAYLQISSLKAEDTAVYFCTSGVHWGQGTLVTVSSASTKGPSVFPLAPSSKSTSGGTAALGCLVKDYFPEPVTVSWNSGALTSGVHTFPAVLQSSGLYSLSSVVTVPSSSLGTQTYICNVNHKPSNTKVDKKVEPKSCDKTHTCPPCPGGGGSGGGGSPALLLLLLLRPPATRGITCPPPMSVEHADIWVKSYSLYSRERYICNSGFKRKAGTSSLTECVLNKATNVAHWTTPSLKCIRDPALVHQRPAPPSTVTTAGVTPQPESLSPSGKEGGGGSGGGGSAPELLGGPSVFLFPPKPKDTLMISRTPEVTCVVVDVSHEDPEVKFNWYVDGVEVHNAKTKPREEQYNSTYRVVSVLTVLHQDWLNGKEYKCKVSNKALPAPIEKTISKAKGQPREPQVYTLPPSRDELTKNQVSLTCLVKGFYPSDIAVEWESNGQPENNYKTTPPVLDSDGSFFLASKLTVDKSRWQQGNVFSCSVMHEALHNHYTQKSLSLSPGK
notes: Trifunctional antibody against CD24 and NKP30 with IL-15 and IL-15Rα sushi between CH1 and CH2; also called constructed antibody DN15-B; multifunctional antibody
On to B2, for which the binding result in experiment [1] is on record as “binds”. In addition, the “EC50 (read off the curve)” value in experiment [2] is around 0.1 µg/mL.
